B1: atherosclerotic PAPP-A (pregnancy-associated plasma protein-A purified from human atherosclerotic coronary arteries) (protein)
chain: EARGATEEPSPPSRALYFSGRGEQLRLRADLELPRDAFTLQVWLRAEGGQRSPAVITGLYDKCSYISRDRGWVVGIHTISDQDNKDPRYFFSLKTDRARQVTTINAHRSYLPGQWVYLAATYDGQFMKLYVNGAQVATSGEQVGGIFSPLTQKCKVLMLGGSALNHNYRGYIEHFSLWKVARTQREILSDMETHGAHTALPQLLLQENWDNVKHAWSPMKDGSSPKVEFSNAHGFLLDTSLEPPLCGQTLCDNTEVIASYNQLSSFRQPKVVRYRVVNLYEDDHKNPTVTREQVDFQHHQLAEAFKQYNISWELDVLEVSNSSLRRRLILANCDISKIGDENCDPECNHTLTGHDGGDCRHLRHPAFVKKQHNGVCDMDCNYERFNFDGGECCDPEITNVTQTCFDPDSPHRAYLDVNELKNILKLDGSTHLNIFFAKSSEEELAGVATWPWDKEALMHLGGIVLNPSFYGMPGHTHTMIHEIGHSLGLYHVFRGISEIQSCSDPCMETEPSFETGDLCNDTNPAPKHKSCGDPGPGNDTCGFHSFFNTPYNNFMSYADDDCTDSFTPNQVARMHCYLDLVYQGWQPSRKPAPVALAPQVLGHTTDSVTLEWFPPIDGHFFERELGSACHLCLEGRILVQYASNASSPMPCSPSGHWSPREAEGHPDVEQPCKSSVRTWSPNSAVNPHTVPPACPEPQGCYLELEFLYPLVPESLTIWVTFVSTDWDSSGAVNDIKLLAVSGKNISLGPQNVFCDVPLTIRLWDVGEEVYGIQIYTLDEHLEIDAAMLTSTADTPLCLQCKPLKYKVVRDPPLQMDVASILHLNRKFVDMDLNLGSVYQYWVITISGTEESEPSPAVTYIHGSGYCGDGIIQKDQGEQCDDMNKINGDGCSLFCRQEVSFNCIDEPSRCYFHDGDGVCEEFEQKTSIKDCGVYTPQGFLDQWASNASVSHQDQQCPGWVIIGQPAASQVCRTKVIDLSEGISQHAWYPCTISYPYSQLAQTTFWLRAYFSQPMVAAAVIVHLVTDGTYYGDQKQETISVQLLDTKDQSHDLGLHVLSCRNNPLIIPVVHDLSQPFYHSQAVRVSFSSPLVAISGVALRSFDNFDPVTLSSCQRGETYSPAEQSCVHFACEKTDCPELAVENASLNCSSSDRYHGAQCTVSCRTGYVLQIRRDDELIKSQTGPSVTVTCTEGKWNKQVACEPVDCSIPDHHQVYAASFSCPEGTTFGSQCSFQCRHPAQLKGNNSLLTCMEDGLWSFPEALCELMCLAPPPVPNADLQTARCRENKHKVGSFCKYKCKPGYHVPGSSRKSKKRAFKTQCTQDGSWQEGACVPVTCDPPPPKFHGLYQCTNGFQFNSECRIKCEDSDASQGLGSNVIHCRKDGTWNGSFHVCQEMQGQCSVPNELNSNLKLQCPDGYAIGSECATSCLDHNSESIILPMNVTVRDIPHWLNPTRVERVVCTAGLKWYPHPALIHCVKGCEPFMGDNYCDAINNRAFCNYDGGDCCTSTVKTKKVTPFPMSCDLQGDCACRDPQAQEHSRKDLRGYSHG
B2: human recombinant PAPP-A (HyTest) (protein)
chain: B1 chain

Biological target: T1, full-length human recombinant IGFBP-4 (insulin-like growth factor binding protein-4) expressed in NS0 cell line, P22692
T1 chain: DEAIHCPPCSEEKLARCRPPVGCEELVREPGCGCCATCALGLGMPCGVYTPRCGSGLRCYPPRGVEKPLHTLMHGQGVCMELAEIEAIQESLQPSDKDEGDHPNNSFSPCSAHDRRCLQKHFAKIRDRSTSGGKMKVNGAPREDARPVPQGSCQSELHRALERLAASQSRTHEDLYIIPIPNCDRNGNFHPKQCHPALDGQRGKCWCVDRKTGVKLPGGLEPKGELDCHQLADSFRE

Row | Protein | PAPP-A-dependent cleavage of IGFBP-4, determined by Western blotting
1 | B1 | Atherosclerotic PAPP-A was shown to cleave IGFBP-4 with the same efficiency as recombinant PAPP-A
2 | B2 | Atherosclerotic PAPP-A was shown to cleave IGFBP-4 with the same efficiency as recombinant PAPP-A
